One molecule from article PMC4994864 can be followed below.

The target of the data set is T1, His-yTop3 (Saccharomyces cerevisiae, UniProt P13099 1-656).
T1 sequence: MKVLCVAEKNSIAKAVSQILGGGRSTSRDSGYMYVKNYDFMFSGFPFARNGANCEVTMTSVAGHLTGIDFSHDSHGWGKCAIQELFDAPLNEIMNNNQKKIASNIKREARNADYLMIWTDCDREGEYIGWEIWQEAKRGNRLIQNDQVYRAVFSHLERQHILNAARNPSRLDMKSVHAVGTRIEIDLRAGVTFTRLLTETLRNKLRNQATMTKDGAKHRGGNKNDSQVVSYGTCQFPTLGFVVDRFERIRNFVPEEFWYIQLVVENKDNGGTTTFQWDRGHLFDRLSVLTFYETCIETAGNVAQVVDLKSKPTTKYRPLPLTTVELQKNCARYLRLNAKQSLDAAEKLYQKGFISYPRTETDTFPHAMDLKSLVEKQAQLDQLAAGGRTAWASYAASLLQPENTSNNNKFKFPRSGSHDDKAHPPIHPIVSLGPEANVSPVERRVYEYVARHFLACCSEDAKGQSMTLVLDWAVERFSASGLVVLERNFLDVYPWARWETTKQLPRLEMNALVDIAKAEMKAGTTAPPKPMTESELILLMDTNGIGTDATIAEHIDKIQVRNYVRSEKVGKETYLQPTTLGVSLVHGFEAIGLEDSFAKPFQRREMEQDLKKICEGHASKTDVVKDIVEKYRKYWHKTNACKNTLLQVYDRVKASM
As to the kind of experiment: EMSA; gel-shift band at 50 nM protein in the RNA topoisomerase reaction; abolished by phenol-chloroform; RNA topoisomerase reaction mixture; buffer, salt, pH and temperature not given in the material. In general terms: A gel shift assay detects complexes by their altered migration in electrophoresis.

B1: 128-nt circular RNA topoisomerase substrate (structured_RNA)
RNA: GGGAGAUUUUUUUUUUUUUUUUUUUUGUCAGACGGAUCUUUUUUUUUUUUUUUUUUUUUCUCCCGACUGGUUUUUUUUUUUUUUUUUUUUGAUCCGUCUGACUUUUUUUUUUUUUUUUUUUUCCAGUC
modifications: circularised with T4 RNA ligase (5' end joined to 3' end)
As for B1, the binding result is “binds”.
